Bounds are passed on as bounds.

Data set [1] concerns the target T1, RsmE P64W (Pseudomonas protegens, UniProt P0DPC3, P64W).
T1 sequence: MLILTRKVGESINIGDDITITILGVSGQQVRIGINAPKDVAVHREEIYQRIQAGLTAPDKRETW
Briefly: ITC; 50 mM potassium phosphate pH 7.2, 10 mM NaCl, 298 K; 10 uM monomer in the cell. The following applies: tags: C-His6 (kept); chain copies: 2; hairpin; 1 RNA per protein dimer.

Data set [2] concerns the target T1, RsmE P64W. Briefly: ITC; 50 mM potassium phosphate pH 7.2, 30 mM NaCl, 298 K; 10 uM monomer in the cell. Conditions: tags: C-His6 (kept); chain copies: 2; hairpin; 1 RNA per protein dimer.
The target of data set [3] is T1, RsmE P64W. Briefly: ITC; 50 mM potassium phosphate pH 7.2, 100 mM NaCl, 298 K; 10 uM monomer in the cell. The following applies: tags: C-His6 (kept); chain copies: 2; hairpin; 1 RNA per protein dimer.
For data set [4], the target named is T1, RsmE P64W. Briefly: ITC; 50 mM potassium phosphate pH 7.2, 300 mM NaCl, 298 K; 10 uM monomer in the cell. The following applies: tags: C-His6 (kept); chain copies: 2; hairpin; 1 RNA per protein dimer.
In data set [5] the target is T1, RsmE P64W. Briefly: ITC; other site of the dimer holds one SL2 RNA; 50 mM potassium phosphate pH 7.2, 10 mM NaCl, 298 K; 10 uM monomer in the cell. Conditions: tags: C-His6 (kept); chain copies: 2; hairpin; 2 copies of the RNA per protein dimer, value for the second.
The target in data set [6] is T1, RsmE P64W. Briefly: ITC; other site of the dimer holds one SL2 RNA; 50 mM potassium phosphate pH 7.2, 30 mM NaCl, 298 K; 10 uM monomer in the cell. The following applies: tags: C-His6 (kept), chain copies: 2.
In data set [7] the target is T1, RsmE P64W. Briefly: ITC; other site of the dimer holds one SL2 RNA; 50 mM potassium phosphate pH 7.2, 100 mM NaCl, 298 K; 10 uM monomer in the cell. The following applies: tags: C-His6 (kept); chain copies: 2; hairpin; 2 copies of the RNA per protein dimer, value for the second.
Data set [8] has as its target T1, RsmE P64W. Briefly: ITC; other site of the dimer holds one SL2 RNA; 50 mM potassium phosphate pH 7.2, 300 mM NaCl, 298 K; 10 uM monomer in the cell. The following applies: tags: C-His6 (kept); chain copies: 2; hairpin; 2 copies of the RNA per protein dimer, value for the second.
Data set [9] addresses T1, RsmE P64W. Briefly: ITC; other site of the dimer holds one 4bpSL2 RNA; 50 mM potassium phosphate pH 7.2, 30 mM NaCl, 298 K; 10 uM monomer in the cell. The following applies: tags: C-His6 (kept); chain copies: 2; hairpin; 2 copies of the RNA per protein dimer, value for the second.
Data set [10] addresses T2, RsmE dimer (P64W, C-terminal His6) (UniProt P0DPC3 1-64, P64W).
T2 sequence: T1 sequence
Briefly: ITC; first site (Kd1); 30 mM NaCl; text: likely upper bound, true value may be <1 nM; 30 mM NaCl, 50 mM potassium phosphate pH 7.2; ITC at 298 K (NaCl varied in Supp. Fig. 8), RNA titrated into 10 uM RsmE monomer, sequential two-site model; NMR at 303/313 K with 3% D2O. Conditions: protein: recombinant; tags: C-terminal 6xHis; chain copies: 2; hairpin, hexaloop.

The target in data set [11] is T2, RsmE dimer (P64W, C-terminal His6). The data set can be described thus: ITC; apo RsmE dimer, first site; 30 mM NaCl, 50 mM potassium phosphate pH 7.2; ITC at 298 K (NaCl varied in Supp. Fig. 8), RNA titrated into 10 uM RsmE monomer, sequential two-site model; NMR at 303/313 K with 3% D2O. The following applies: protein: recombinant; tags: C-terminal 6xHis; chain copies: 2; hairpin.

For data set [12] the target is unchanged. The data set can be described thus: NMR; 1:1 semi-holo complex; no minor conformations; 30 mM NaCl, 50 mM potassium phosphate pH 7.2; ITC at 298 K (NaCl varied in Supp. Fig. 8), RNA titrated into 10 uM RsmE monomer, sequential two-site model; NMR at 303/313 K with 3% D2O. The following applies: protein: recombinant; tags: C-terminal 6xHis; chain copies: 2; hairpin, 4 bp stem.

The target of data set [13] is T1, RsmE P64W. The data set can be described thus: ITC; other site of the dimer holds one hcnA RNA; 50 mM potassium phosphate pH 7.2, 30 mM NaCl, 298 K; 10 uM monomer in the cell. Conditions: tags: C-His6 (kept); chain copies: 2; hairpin; 2 copies of the RNA per protein dimer, value for the second.

On to GGGCCAUCAAGGACGAUGGUCC (ssRNA, T7 transcript (5' triphosphate expected)) [SL2], for which the Kd in the data set with RsmE P64W [1] is under 0.943 nM; with RsmE P64W [2], under 1.45 nM; with RsmE P64W [3] it was 5.71 ± 1.35 nM; with RsmE P64W [4], 15.4 ± 1.51 nM; with RsmE P64W [5], 22.3 ± 2.06 nM; with RsmE P64W [6] (hairpin, 2 copies of the RNA per protein dimer, value for the second) it was 31.1 ± 2.78 nM. The Kd turned out to be 64.2 ± 3.23 nM with RsmE P64W [7] and 118 ± 4.14 nM with RsmE P64W [8].
In the case of GGAUCAAGGACGAUCC (ssRNA, T7 transcript (5' triphosphate expected)) [4bpSL2], the results for the Kd with RsmE P64W [2] and with RsmE P64W [9] were 21.6 ± 2.56 nM and 97.2 ± 3.58 nM, respectively.
As for GGGCCAUCAAGGACGAUGGUCC (structured_RNA) [SL2 RNA (RsmZ)], the Kd in data set [10] came out at 1.4 nM.
Consider GGGCUUCACGGAUGAAGCCC (structured_RNA) [hcnA SD RNA], for which the equilibrium dissociation constant (Kd) in data set [11] was about 10 nM.

B1: hcnA SD (ssRNA)
RNA 1: GGGCUUCACGGAUGAAGCCC
RNA 2: GGGCCAUCAAGGACGAUGGUCC
modifications: T7 transcript (5' triphosphate expected)
Take B1: the affinity with RsmE P64W [6] (two separate hairpins, one per site), expressed as Kd, was 297 ± 11.4 nM.
As for GGAUCAAGGACGAUCC (structured_RNA) [4bpSL2 RNA], in data set [12], the binding result is recorded as “binds”.
Turning to GGGCUUCACGGAUGAAGCCC (ssRNA, T7 transcript (5' triphosphate expected)), the equilibrium dissociation constant (Kd) in the data set with RsmE P64W [2] was found to be 8.67 ± 2.02 nM; in the data set with RsmE P64W [13] it was 218 ± 12.8 nM.

The record behind these values is article PMC13287468, “Newton’s cradle-like allosteric mechanism explains regulatory RsmE RNA binding”.
